Experimental data published in publication PMC7822592, “The half-life of the bone-derived hormone osteocalcin is regulated through O-glycosylation in mice, but not in humans” (eLife, 2020).
No end group written: not given here. O‑glycan = not defined here

Assay: Ex vivo half-life of mouse OCN in plasma
Type: in vitro ADME
Conditions: 100 ng/ml; for % OCN from initial: Bglap-/- mouse plasma
Protocol: The mouse OCN ex vivo half-life assays were performed with fresh plasma (lithium heparin) collected from four independent Bglap-/- mice. Glycosylated OCN produced in HEK293 cells and non-glycosylated OCN, produced in bacteria as previously described ([Ferron et al., 2012]), were incubated at 100 ng/ml in plasma at 37°C and OCN level was measured at indicated time points using the total mouse OCN ELISA assay described previously ([Ferron et al., 2010b]). […] The detection antibody is a goat polyclonal antibody directed against the C-terminal region (amino acids 26 to 46) of mouse OCN (anti-CTERM OCN). This assay detects with the same sensitivity glycosylated and non-glycosylated mouse OCN at concentration of 50 ng/ml or less (Figure 3—figure supplement 2). Therefore, all samples were diluted to be in this range before being measured by the ELISA. Human OCN half-life assay was performed ex vivo using Bglap-/- mice plasma and human OCN at 60 ng/ml. Human OCN level was measured at different time point using the human ucOCN ELISA described above. At the experiment start point (T0), an aliquot of plasma was diluted in ELISA assay buffer and kept on ice for OCN measurements. In some experiments, plasma was heat-inactivated for 30 min at 56°C, or treated with EDTA (10 mM, Wisent), phenylmethylsulfonyl fluoride (PMSF, 10 mM, Sigma), pepstatin A (Pep A, 10 μM, Sigma) which inhibits aspartic proteases (pepsin, cathepsin D, renin, chymosin), RVKR (Dec-RVKR-CMK, 50 μM; Tocris) or talabostat (10 mM; Tocris). Results are calculated in percentage relative to the initial concentration of non-glycosylated and glycosylated OCN respectively.

Substance: O-gly ucOCN: O-glycosylated uncarboxylated mouse osteocalcin produced and purified from HEK293 as Fc fusion, released by thrombin (YLGASVPS(O‑glycan)PDPLEPTREQCELNPACDELSDQYGLKTAYKRIYGITI; ends and bridges not checked; also: O-glycosylated (HexNAc, Hex, NANA); UniProt P86546 50-95, looked up)
- % OCN from initial (37°C, 0 min, ELISA, replicate 1): 100.0%
- % OCN from initial (37°C, 0 min, ELISA, replicate 2): 100.0%
- % OCN from initial (37°C, 0 min, ELISA, replicate 3): 100.0%
- % OCN from initial (37°C, 0 min, ELISA, replicate 4): 100.0%
- % OCN from initial (37°C, 0 min, ELISA, replicate 5): 100.0%
- % OCN from initial (37°C, 15 min, ELISA, replicate 1): 104.1%
- % OCN from initial (37°C, 15 min, ELISA, replicate 2): 103.7%
- % OCN from initial (37°C, 15 min, ELISA, replicate 3): 102.4%
- % OCN from initial (37°C, 15 min, ELISA, replicate 4): 105.4%
- % OCN from initial (37°C, 15 min, ELISA, replicate 5): 92.4%
- % OCN from initial (37°C, 30 min, ELISA, replicate 1): 101.9%
- % OCN from initial (37°C, 30 min, ELISA, replicate 2): 103.9%
- % OCN from initial (37°C, 30 min, ELISA, replicate 3): 104.6%
- % OCN from initial (37°C, 30 min, ELISA, replicate 4): 102.8%
- % OCN from initial (37°C, 30 min, ELISA, replicate 5): 91.2%
- % OCN from initial (37°C, 60 min, ELISA, replicate 1): 103.5%
- % OCN from initial (37°C, 60 min, ELISA, replicate 2): 108.3%
- % OCN from initial (37°C, 60 min, ELISA, replicate 3): 103.5%
- % OCN from initial (37°C, 60 min, ELISA, replicate 4): 102.6%
- % OCN from initial (37°C, 60 min, ELISA, replicate 5): 95.6%
- % OCN from initial (37°C, 90 min, ELISA, replicate 1): 108.4%
- % OCN from initial (37°C, 90 min, ELISA, replicate 2): 106.6%
- % OCN from initial (37°C, 90 min, ELISA, replicate 3): 107.8%
- % OCN from initial (37°C, 90 min, ELISA, replicate 4): 102.6%
- % OCN from initial (37°C, 90 min, ELISA, replicate 5): 92.9%
- % OCN from initial (37°C, 120 min, ELISA, replicate 1): 105.8%
- % OCN from initial (37°C, 120 min, ELISA, replicate 2): 103.2%
- % OCN from initial (37°C, 120 min, ELISA, replicate 3): 106.0%
- % OCN from initial (37°C, 120 min, ELISA, replicate 4): 107.0%
- % OCN from initial (37°C, 120 min, ELISA, replicate 5): 90.1%
- % OCN from initial (37°C, 180 min, ELISA, replicate 1): 106.8%
- % OCN from initial (37°C, 180 min, ELISA, replicate 2): 107.9%
- % OCN from initial (37°C, 180 min, ELISA, replicate 3): 107.4%
- % OCN from initial (37°C, 180 min, ELISA, replicate 4): 119.0%
- % OCN from initial (37°C, 180 min, ELISA, replicate 5): 78.8%
- % OCN from initial (37°C, 300 min, ELISA, replicate 1): 106.5%
- % OCN from initial (37°C, 300 min, ELISA, replicate 2): 103.5%
- % OCN from initial (37°C, 300 min, ELISA, replicate 3): 104.6%
- % OCN from initial (37°C, 300 min, ELISA, replicate 4): 102.2%
- % OCN from initial (37°C, 300 min, ELISA, replicate 5): 88.0%
- % OCN from initial (Figure 3D, 2hrs, 37°C, Not HI, ELISA, replicate 1): 100.8%
- % OCN from initial (Figure 3D, 2hrs, 37°C, Not HI, ELISA, replicate 2): 92.4%
- % OCN from initial (Figure 3D, 2hrs, 37°C, Not HI, ELISA, replicate 3): 106.8%
- % OCN from initial (Figure 3D, T0, ELISA, replicate 1): 101.5%
- % OCN from initial (Figure 3D, T0, ELISA, replicate 2): 94.9%
- % OCN from initial (Figure 3D, T0, ELISA, replicate 3): 103.6%
- % OCN from initial (Figure 3 supplement 3A, 37°C, T=2hours, replicate 1): 90.8%
- % OCN from initial (Figure 3 supplement 3A, 37°C, T=2hours, replicate 2): 95.5%
- % OCN from initial (Figure 3 supplement 3A, 37°C, T=2hours, replicate 3): 95.0%
- % OCN from initial (Figure 3 supplement 3A, T0, replicate 1): 105.0%
- % OCN from initial (Figure 3 supplement 3A, T0, replicate 2): 101.3%
- % OCN from initial (Figure 3 supplement 3A, T0, replicate 3): 93.7%
- stable in plasma for (fresh Bglap-/- mouse plasma (lithium heparin), 37°C, total mouse OCN ELISA, n = 4 plasma): more than 5 hr
